From patent publication US20100144027

Target: enterokinase

B1: protein of the present invention having an amino acid sequence shown in SEQ ID NO:1 (protein)
chain: YDPEAASAPGSGNPCHEASAAQKENAGEDPGLARQAPKPRKQRSSLLEKGLDGAKKAVGGLGKLGKDAVEDLESVGKGAVHDVKDVLDSVL
amidolytic activity against the fluorescent peptide substrate for trypsin (increase in fluorescence intensity): a minimal proteolytic activity exhibited by enterokinase alone was significantly enhanced by the protein of the present invention immunoprecipitated from JAR cells
